We go through eleven variants from IntAct's records for PubMed 31515488.

To fix the notation:
B1: Methylthioribulose-1-phosphate dehydratase (Homo sapiens), Q96GX9 (parent)
chain: MSGCDAREGDCCSRRCGAQDKEHPRYLIPELCKQFYHLGWVTGTGGGISLKHGDEIYIAPSGVQKERIQPEDMFVCDINEKDISGPSPSKKLKKSQCTPLFMNAYTMRGAGAVIHTHSKAAVMATLLFPGREFKITHQEMIKGIKKCTSGGYYRYDDMLVVPIIENTPEEKDLKDRMAHAMNEYPDSCAVLVRRHGVYVWGETWEKAKTMCECYDYLFDIAVSMKKVGLDPSQLPVGENGIV
partner: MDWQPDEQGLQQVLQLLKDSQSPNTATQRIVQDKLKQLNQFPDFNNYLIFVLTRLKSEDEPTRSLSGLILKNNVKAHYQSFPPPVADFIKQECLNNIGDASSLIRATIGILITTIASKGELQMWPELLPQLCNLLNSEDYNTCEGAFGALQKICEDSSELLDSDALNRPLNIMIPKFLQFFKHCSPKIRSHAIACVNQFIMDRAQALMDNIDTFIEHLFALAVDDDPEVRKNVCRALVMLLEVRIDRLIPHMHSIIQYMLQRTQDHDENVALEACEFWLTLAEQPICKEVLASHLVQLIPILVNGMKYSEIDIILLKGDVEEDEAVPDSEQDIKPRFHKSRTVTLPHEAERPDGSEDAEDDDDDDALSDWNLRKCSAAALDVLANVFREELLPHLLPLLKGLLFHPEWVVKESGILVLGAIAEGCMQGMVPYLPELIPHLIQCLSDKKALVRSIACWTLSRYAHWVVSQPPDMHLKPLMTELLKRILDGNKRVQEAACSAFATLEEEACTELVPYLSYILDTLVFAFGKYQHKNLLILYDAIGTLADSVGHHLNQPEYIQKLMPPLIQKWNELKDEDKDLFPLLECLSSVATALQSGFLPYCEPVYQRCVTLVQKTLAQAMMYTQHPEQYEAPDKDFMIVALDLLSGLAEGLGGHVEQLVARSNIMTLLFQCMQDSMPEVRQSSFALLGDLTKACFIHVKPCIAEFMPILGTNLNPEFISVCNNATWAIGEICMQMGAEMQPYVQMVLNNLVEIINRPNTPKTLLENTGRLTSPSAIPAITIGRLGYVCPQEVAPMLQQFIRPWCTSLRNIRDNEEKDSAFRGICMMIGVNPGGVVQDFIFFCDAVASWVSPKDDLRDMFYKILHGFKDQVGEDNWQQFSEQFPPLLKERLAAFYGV
B2: Protein FAM168A (Homo sapiens), Q92567 (parent)
chain: MNPVYSPVQPGAPYGNPKNMAYTGYPTAYPAAAPAYNPSLYPTNSPSYAPEFQFLHSAYATLLMKQAWPQNSSSCGTEGTFHLPVDTGTENRTYQASSAAFRYTAGTPYKVPPTQSNTAPPPYSPSPNPYQTAMYPIRSAYPQQNLYAQGAYYTQPVYAAQPHVIHHTTVVQPNSIPSAIYPAPVAAPRTNGVAMGMVAGTTMAMSAGTLLTTPQHTAIGAHPVSMPTYRAQGTPAYSYVPPHW
B3: Transcription factor 12 (Homo sapiens), Q99081-3 (parent)
chain: MNPQQQRMAAIGTDKELSDLLDFSAMFSPPVNSGKTRPTTLGSSQFSGSGIDERGGTTSWGTSGQPSPSYDSSRGFTDSPHYSDHLNDSRLGAHEGLSPTPFMNSNLMGKTSERGSFSLYSRDTGLPGCQSSLLRQDLGLGSPAQLSSSGKPGTAYYSFSATSSRRRPLHDSAALDPLQAKKVRKVPPGLPSSVYAPSPNSDDFNRESPSYPSPKPPTSMFASTFFMQDGTHNSSDLWSSSNGMSQPGFGGILGTSTSHMSQSSSYGNLHSHDRLSYPPHSVSPTDINTSLPPMSSFHRGSTSSSPYVAASHTPPINGSDSILGTRGNAAGSSQTGDALGKALASIYSPDHTSSSFPSNPSTPVGSPSPLTGTSQWPRPGGQAPSSPSYENSLHSLKNRVEQQLHEHLQDAMSFLKDVCEQSRMEDRLDRLDDAIHVLRNHAVGPSTSLPAGHSDIHSLLGPSHNAPIGSLNSNYGGSSLVASSRSASMVGTHREDSVSLNGNHSVLSSTVTTSSTDLNHKTQENYRGGLQSQSGTVVTTEIKTENKEKDENLHEPPSSDDMKSDDESSQKDIKVSSRGRTSSTNEDEDLNPEQKIEREKERRMANNARERLRVRDINEAFKELGRMCQLHLKSEKPQTKLLILHQAVAVILSLEQQVRERNLNPKAACLKRREEEKVSAVSAEPPTTLPGTHPGLSETTNPMGHM
partner: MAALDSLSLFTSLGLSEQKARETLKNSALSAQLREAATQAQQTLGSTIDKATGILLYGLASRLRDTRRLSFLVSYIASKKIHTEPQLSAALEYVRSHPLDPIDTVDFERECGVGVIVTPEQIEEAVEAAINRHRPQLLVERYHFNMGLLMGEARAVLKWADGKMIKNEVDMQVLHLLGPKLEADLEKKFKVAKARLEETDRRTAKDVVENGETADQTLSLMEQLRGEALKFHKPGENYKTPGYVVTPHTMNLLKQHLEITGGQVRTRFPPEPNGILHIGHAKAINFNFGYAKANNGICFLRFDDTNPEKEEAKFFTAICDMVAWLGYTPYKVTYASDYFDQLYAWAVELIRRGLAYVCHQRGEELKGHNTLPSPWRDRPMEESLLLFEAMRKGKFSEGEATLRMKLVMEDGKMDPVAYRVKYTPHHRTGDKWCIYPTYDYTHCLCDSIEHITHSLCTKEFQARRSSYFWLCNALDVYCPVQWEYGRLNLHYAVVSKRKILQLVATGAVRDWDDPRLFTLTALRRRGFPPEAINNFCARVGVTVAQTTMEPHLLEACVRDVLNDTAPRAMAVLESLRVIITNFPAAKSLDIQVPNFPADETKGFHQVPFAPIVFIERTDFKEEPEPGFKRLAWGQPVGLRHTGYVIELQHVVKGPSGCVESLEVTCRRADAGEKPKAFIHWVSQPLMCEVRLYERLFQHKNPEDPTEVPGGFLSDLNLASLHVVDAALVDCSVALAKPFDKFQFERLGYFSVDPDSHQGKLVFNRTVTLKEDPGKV
B4: Methylthioribulose-1-phosphate dehydratase (Homo sapiens), Q96GX9 (parent)
chain: B1 chain
partner: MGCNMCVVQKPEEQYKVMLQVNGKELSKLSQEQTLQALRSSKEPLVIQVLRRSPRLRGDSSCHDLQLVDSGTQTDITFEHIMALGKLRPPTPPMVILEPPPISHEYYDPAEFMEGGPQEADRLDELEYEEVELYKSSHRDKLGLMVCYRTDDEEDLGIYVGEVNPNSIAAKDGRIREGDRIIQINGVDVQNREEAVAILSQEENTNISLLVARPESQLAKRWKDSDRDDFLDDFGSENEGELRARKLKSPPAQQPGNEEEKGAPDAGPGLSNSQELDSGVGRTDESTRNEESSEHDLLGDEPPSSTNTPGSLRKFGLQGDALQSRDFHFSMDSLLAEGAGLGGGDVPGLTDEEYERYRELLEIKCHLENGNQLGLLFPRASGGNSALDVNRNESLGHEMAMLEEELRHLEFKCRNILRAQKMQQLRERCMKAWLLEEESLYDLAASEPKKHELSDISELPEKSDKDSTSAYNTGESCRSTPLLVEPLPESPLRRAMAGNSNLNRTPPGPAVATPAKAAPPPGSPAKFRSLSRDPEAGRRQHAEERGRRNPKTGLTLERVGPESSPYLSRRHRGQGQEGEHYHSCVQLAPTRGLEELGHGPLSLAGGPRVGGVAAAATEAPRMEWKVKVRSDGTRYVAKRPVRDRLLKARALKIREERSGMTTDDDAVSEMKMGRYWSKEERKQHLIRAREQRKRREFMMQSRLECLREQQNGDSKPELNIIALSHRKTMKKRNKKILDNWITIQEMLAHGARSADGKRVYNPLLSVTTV

The variants in one experiment derive from B1. To be noted: with tnpo2_human TNPO2, O14787.
Consider M181V, for which the “effect of a mutation on the interaction” value is listed as “disrupting interaction strength”. Regarding G111A, the “effect of a mutation on the interaction” value was “with no effect”.

In a further experiment the parent is B2. The note with it: with ru1c_human SNRPC.
On to P122R, for which the “effect of a mutation on the interaction” value is on record as “with no effect”.

The variants in another experiment derive from B2. The note with it: with ubs3b_human UBASH3B.
As to P122R, the “effect of a mutation on the interaction” value was “disrupting interaction strength”.

In another experiment the parent is B2. The note with it: with ub2v1_human UBE2V1, Q13404.
Sequence of ub2v1_human UBE2V1, Q13404 (Q13404 whole entry): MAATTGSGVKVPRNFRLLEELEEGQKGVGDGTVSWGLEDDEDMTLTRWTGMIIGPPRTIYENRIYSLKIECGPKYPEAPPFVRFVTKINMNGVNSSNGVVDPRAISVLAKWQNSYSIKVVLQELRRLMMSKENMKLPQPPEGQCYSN
With P122R, the “effect of a mutation on the interaction” value is reported as “disrupting interaction strength”.

In a further experiment the parent is B3. To be noted: with syq_human QARS1, P47897.
In the case of A482V, the “effect of a mutation on the interaction” value was “with no effect”.

With Y120C, the “effect of a mutation on the interaction” value is “with no effect”. Take R74G: the “effect of a mutation on the interaction” value is “with no effect”. On to N606H, for which the “effect of a mutation on the interaction” value is on record as “with no effect”.

In the case of A155T, the “effect of a mutation on the interaction” value is given as “with no effect”. S446F: the “effect of a mutation on the interaction” value was “with no effect”.

Another experiment covers variants of B4. The note with it: with pdzd4_human PDZD4, Q76G19.
For G111A, the “effect of a mutation on the interaction” value is “with no effect”. Still for that read-out and setting: with M181V the entry was “with no effect”.
